The values below come from patent US20240376224A1 (University of California, published 2024).

The target of assay [1] is T1, c-CDCP1 Cut 2 N-terminal fragment (NTF) (human, UniProt Q9H5V8 30-368).
T1 construct: also called NTF (Cut 2)
T1 sequence: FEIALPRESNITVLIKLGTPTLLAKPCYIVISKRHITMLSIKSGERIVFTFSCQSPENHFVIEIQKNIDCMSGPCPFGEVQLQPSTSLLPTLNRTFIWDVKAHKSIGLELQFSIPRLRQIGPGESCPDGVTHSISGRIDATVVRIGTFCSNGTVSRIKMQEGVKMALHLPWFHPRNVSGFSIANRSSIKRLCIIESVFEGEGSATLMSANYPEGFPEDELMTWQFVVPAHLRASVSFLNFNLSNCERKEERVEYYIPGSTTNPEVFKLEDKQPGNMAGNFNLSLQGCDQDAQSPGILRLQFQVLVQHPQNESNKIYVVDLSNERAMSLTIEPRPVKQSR
The assay can be described thus: co-transfection of NTF and CTF plasmids (Cut 2), Ni-NTA co-purification. An excerpt:
(§1) In the present example, CDCP1 antigen with endogenous cut sites was generated. Generation of the CDCP1 antigen proceeded by co-transfection of the two fragments on separate plasmids. One set of plasmids encoding the NTF of CDCP1, ending after the PI residue of the 3 different cut sites, was designed; and a second set of plasmids encoding the C-terminal ectodomain of CDCP1 starting at the P1′ residue of the 3 different cut sites (c-CDCP1 Cut 1, Cut 2, Cut 3), was designed (FIG. 3A). Uncleaved CDCP1 ectodomain was generated with a single plasmid encoding the entire ectodomain (fl-CDCP1). Following co-transfection of pairs of NTF and CTF plasmids, an intact cleaved CDCP1 complex was purified by Ni-NTA affinity chromatography for all of the NTF+CTF cut variants (FIG. 3B). In parallel, fl-CDCP1 and c-CDCP1 ectodomains fused to an Fc domain were generated for use in phage selection, using the same co-transfection strategy (FIG. 3H-FIG. 3L). Three pairs of NTF and CTF-Fc plasmids were made that ends or starts at the 3 different cut sites of cleaved CDCP1. An SDS-PAGE gel of fl-CDCP1-Fc and c-CDCP1-Fc (Cut 1, Cut 2, Cut 3) was run (FIG. 3I).

The target in assay [2] is T2, mouse c-CDCP1 on Fc1245 cells (mouse) (UniProt Q5U462).
T2 sequence 1: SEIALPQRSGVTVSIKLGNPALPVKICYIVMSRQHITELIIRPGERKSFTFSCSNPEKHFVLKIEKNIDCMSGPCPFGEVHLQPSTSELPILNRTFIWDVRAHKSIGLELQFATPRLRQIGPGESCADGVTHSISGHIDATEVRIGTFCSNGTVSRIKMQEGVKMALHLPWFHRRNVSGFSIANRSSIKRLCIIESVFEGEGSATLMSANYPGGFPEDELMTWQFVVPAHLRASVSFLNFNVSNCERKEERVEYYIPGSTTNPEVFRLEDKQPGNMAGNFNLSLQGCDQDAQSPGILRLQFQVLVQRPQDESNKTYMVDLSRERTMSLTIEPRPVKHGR
T2 sequence 2: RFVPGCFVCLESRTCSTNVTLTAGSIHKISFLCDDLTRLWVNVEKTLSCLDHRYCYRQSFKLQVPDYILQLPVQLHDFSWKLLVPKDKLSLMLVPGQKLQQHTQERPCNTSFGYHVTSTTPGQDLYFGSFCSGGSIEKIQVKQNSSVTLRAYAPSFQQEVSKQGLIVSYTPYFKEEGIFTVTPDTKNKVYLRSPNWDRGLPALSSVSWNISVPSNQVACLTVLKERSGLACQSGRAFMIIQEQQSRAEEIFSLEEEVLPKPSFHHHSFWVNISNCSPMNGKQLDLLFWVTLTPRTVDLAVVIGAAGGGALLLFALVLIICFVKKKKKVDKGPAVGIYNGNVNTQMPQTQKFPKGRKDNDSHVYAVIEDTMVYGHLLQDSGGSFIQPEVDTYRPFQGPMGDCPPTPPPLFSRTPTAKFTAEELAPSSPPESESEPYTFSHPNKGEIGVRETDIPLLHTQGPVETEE
The assay can be described thus: flow cytometry on Fc1245 c-CDCP1 cells (FIG. 9B); FIG. 9B.

Assay [3] has as its target T3, mouse c-CDCP1 (recombinant cleaved mouse CDCP1) (mouse, UniProt Q5U462 30-368; Q5U462 369-666, limits assumed).
T3 construct: Mouse antigens made were c-CDCP1-Fc (Cut 1) and (Cut 2); also called mouse cleaved CDCP1; cleaved mCDCP1
T3 sequence 1: T2 sequence 1
T3 sequence 2: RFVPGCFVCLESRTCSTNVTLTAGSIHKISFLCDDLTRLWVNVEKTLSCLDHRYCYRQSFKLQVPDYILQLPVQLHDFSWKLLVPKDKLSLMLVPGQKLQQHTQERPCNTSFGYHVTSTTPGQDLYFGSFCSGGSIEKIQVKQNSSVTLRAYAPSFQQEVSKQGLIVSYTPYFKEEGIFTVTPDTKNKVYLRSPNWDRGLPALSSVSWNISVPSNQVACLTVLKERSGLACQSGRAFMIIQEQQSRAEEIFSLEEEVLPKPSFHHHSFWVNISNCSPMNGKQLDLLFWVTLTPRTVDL
Kind of assay: BLI (Octet), table of binding affinities to mCDCP1. Background: BLI is a label-free optical method that tracks binding on a fibre tip over time.

Assay [4] addresses T4, c-CDCP1 Cut 1 N-terminal fragment (NTF) (human, UniProt Q9H5V8 30-365).
T4 construct: also called NTF (Cut 1)
T4 sequence: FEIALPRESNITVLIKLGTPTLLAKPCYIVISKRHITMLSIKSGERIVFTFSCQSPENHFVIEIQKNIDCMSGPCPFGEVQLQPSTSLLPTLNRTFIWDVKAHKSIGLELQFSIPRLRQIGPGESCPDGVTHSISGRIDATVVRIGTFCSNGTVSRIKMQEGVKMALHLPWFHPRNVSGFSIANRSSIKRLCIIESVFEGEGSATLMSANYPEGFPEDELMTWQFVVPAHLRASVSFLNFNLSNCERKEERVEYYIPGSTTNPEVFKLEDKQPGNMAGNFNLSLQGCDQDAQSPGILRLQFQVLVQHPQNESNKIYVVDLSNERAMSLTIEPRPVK
The assay can be described thus: co-transfection of NTF and CTF plasmids (Cut 1), Ni-NTA co-purification.
From the text: as §1

Assay [5] addresses T5, c-CDCP1 Cut 3 N-terminal fragment (NTF) (human, UniProt Q9H5V8 30-369).
T5 construct: also called NTF (Cut 3)
T5 sequence: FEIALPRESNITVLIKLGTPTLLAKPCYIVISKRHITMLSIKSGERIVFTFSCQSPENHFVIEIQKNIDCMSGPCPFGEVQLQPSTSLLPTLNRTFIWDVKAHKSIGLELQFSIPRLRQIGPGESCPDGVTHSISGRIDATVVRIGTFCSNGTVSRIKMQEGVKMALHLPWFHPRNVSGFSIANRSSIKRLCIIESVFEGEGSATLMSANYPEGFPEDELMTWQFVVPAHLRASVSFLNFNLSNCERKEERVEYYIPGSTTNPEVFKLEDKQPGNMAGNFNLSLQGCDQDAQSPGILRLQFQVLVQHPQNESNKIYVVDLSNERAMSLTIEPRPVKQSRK
Kind of assay: co-transfection of NTF and CTF plasmids (Cut 3), Ni-NTA co-purification.
From the text: as §1

A further assay deals with T6, c-CDCP1-Fc (Cut 2) (human, UniProt Q9H5V8 30-368; Q9H5V8 369-667).
T6 construct: Co-transfection of NTF and CTF-Fc plasmids; not shown: Fc domain
T6 sequence 1: T1 sequence
T6 sequence 2: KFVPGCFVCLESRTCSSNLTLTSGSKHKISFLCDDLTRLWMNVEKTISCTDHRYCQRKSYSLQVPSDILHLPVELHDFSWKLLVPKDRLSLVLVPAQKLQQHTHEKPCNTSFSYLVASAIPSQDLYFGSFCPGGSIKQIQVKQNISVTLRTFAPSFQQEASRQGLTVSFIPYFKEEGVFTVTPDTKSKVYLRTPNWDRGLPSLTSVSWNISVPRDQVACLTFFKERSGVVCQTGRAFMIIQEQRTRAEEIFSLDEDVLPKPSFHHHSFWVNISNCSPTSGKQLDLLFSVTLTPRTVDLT
The assay can be described thus: BLI (Octet RED384) on c-CDCP1-Fc (Cut2); antibody concentration not given. Here is the method: BLI experiments were performed using an Octet RED384 instrument (ForteBio). Biotinylated proteins were immobilized on a streptavidin (SA) biosensor and His-tagged proteins were immobilized on a Ni-NTA biosensor. Different concentrations of analyte in PBS pH 7.4+0.05% Tween-20+0.2% BSA (PBSTB) were used as analyte. Affinities (KDS) were calculated from a global fit (1:1) of the data using the Octet RED384 software.
Furthermore, variants of CL03 were evaluated for binding to c-CDCP1-Fc (Cut2) by BLI assays using an Octet RED384 instrument (ForteBio) (FIG. 16A) using a procedure as generally described in Example 1. The variants also were evaluated by SEC-based analysis (FIG. 16B) as generally described in Example 1. The variants evaluated by BLI assays and SEC-based analysis included the variants referred to as IgG87, IgG89, IgG94, IgG97, IgG101 (CL03 IgG H1-NtoD H3-MtoA), and IgG102.

One may read the EC50 as the midpoint of the concentration-response curve. In general, Kd refers to the constant that tells how readily two partners part at equilibrium.

B1: c-CDCP1 Cut 2 C-terminal fragment (CTF) of the ectodomain (receptor)
chain: T6 sequence 2
notes: Tag for Ni-NTA purification not described; also called CTF (Cut 2)
As for B1, the binding result in assay [1] is listed as “binds”.

B2: IgG 58 (antibody, V domains shown)
VH: EVQLVESGGGLVQPGGSLRLSCAASGFNVYSYSIHWVRQAPGKGLEWVASISSSSGSTSYADSVKGRFTISADTSKNTAYLQMNSLRAEDTAVYYCARYYWDPWQYASYSYLAFDYWGQGTLVTVSS
VL: MTQSPSSLSASVGDRVTITCRASQSVSSAVAWYQQKPGKAPKLLIYSASSLYSGVPSRFSGSRSGTDFTLTISSLQPEDFATYYCQQTYSGPITFGQGTKVEIKR
notes: Mouse cleaved-CDCP1-specific antibody; also called Ab58; IgG 0058
Consider B2, for which the EC50 in assay [2] came to 6.9 nM. In assay [3], the Kd turned out to be 0.8 nM.

B3: c-CDCP1 Cut 1 C-terminal fragment (CTF) of the ectodomain (receptor)
chain: QSRKFVPGCFVCLESRTCSSNLTLTSGSKHKISFLCDDLTRLWMNVEKTISCTDHRYCQRKSYSLQVPSDILHLPVELHDFSWKLLVPKDRLSLVLVPAQKLQQHTHEKPCNTSFSYLVASAIPSQDLYFGSFCPGGSIKQIQVKQNISVTLRTFAPSFQQEASRQGLTVSFIPYFKEEGVFTVTPDTKSKVYLRTPNWDRGLPSLTSVSWNISVPRDQVACLTFFKERSGVVCQTGRAFMIIQEQRTRAEEIFSLDEDVLPKPSFHHHSFWVNISNCSPTSGKQLDLLFSVTLTPRTVDLT
notes: Tag for Ni-NTA purification not described; also called CTF (Cut 1)
On to B3, for which the binding result in assay [4] is given as “binds”.

B4: c-CDCP1 Cut 3 C-terminal fragment (CTF) of the ectodomain (receptor)
chain: FVPGCFVCLESRTCSSNLTLTSGSKHKISFLCDDLTRLWMNVEKTISCTDHRYCQRKSYSLQVPSDILHLPVELHDFSWKLLVPKDRLSLVLVPAQKLQQHTHEKPCNTSFSYLVASAIPSQDLYFGSFCPGGSIKQIQVKQNISVTLRTFAPSFQQEASRQGLTVSFIPYFKEEGVFTVTPDTKSKVYLRTPNWDRGLPSLTSVSWNISVPRDQVACLTFFKERSGVVCQTGRAFMIIQEQRTRAEEIFSLDEDVLPKPSFHHHSFWVNISNCSPTSGKQLDLLFSVTLTPRTVDLT
notes: Tag for Ni-NTA purification not described; also called CTF (Cut 3)
On to B4, for which, in assay [5], the binding result is “binds”.

B5: IgG102 (antibody, V domains shown)
VH: EVQLVESGGGLVQPGGSLRLSCAASGFDFSSYSIHWVRQAPGKGLEWVASSYPYSGSTYYADSVKGRFTISADTSKNTAYLQMNSLRAEDTAVYYCARQSHSYYSHTWWVSYGMDYWGQGTLVTVSS
VL: DIQMTQSPSSLSASVGDRVTITCRASQSVSSAVAWYQQKPGKAPKLLIYSASSLYSGVPSRFSGSRSGTDFTLTISSLQPEDFATYYCQQSGQRPITFGQGTKVEIK
In the case of B5, the binding result with c-CDCP1-Fc (Cut 2) is “binds”.
